Substitutions are numbered along the chain they refer to. Names and notes keep the numbering of the source. One block for each binder: values may come before it.
What was measured:
[1] = molecular target: T1, soluble extracellular region of human CD38 fused to a 6-His-tag (human, UniProt P28907 43-300); experiment: SPR, antibody captured on protein G, CD38 injected
T1 construct: Expressed with the murine VJ2C leader; also called human CD38 protein; human CD38 antigen

[2] = molecular target: T2, human CD38 on cells (human, UniProt P28907 1-300); experiment: cell-based or functional assay
[3] = molecular target: T3, Protein G (UniProt P06654 228-352); experiment: protein G affinity chromatography, eluate (G) and flow-through (G ft) on non-reducing SDS-PAGE
T3 construct: also called protein G chromatography

[4] = molecular target: T4, Protein A (Staphylococcus aureus, UniProt P38507 37-327); experiment: protein A affinity chromatography, eluate (A) and flow-through (A ft) on non-reducing SDS-PAGE
T4 construct: Resin ligands (MabSelect, MabSelect SuRe) are recombinant or engineered forms; also called protein A chromatography

[5] = molecular target: T5, soluble extracellular region of cynomolgus monkey CD38 antigen fused to a 6-His-tag (cynomolgus monkey, UniProt Q5VAN0 45-301); experiment: SPR (summary table, row 'KD cynomolgus monkey CD38 (nM)')
T5 construct: also called cynomolgus CD38

[6] = molecular target: T6, human CD3 epsilon on cells (human, UniProt P07766 23-207); experiment: FACS staining of HPB-ALL cells, scFv-Fc format, graded relative to chimeric OKT3
T6 construct: whole, on cells; On cells it stands in the CD3/TCR complex; also called HPB-ALL cells (human CD3 epsilon positive T cell tumour line); CD3 on human T cells
Method: HPB-ALL cells (DSMZ, Braunschweig, Germany, Cat. No: ACC483) were used as CD3 positive cell line for FACS staining. […] After washing, cells were incubated with a 1/200 dilution of anti-Human Fc-PE (EBioscience, Vienna, Austria) for 45 min on ice. Cells were then washed again and resuspended in 200 ul FACS buffer.

[7] = molecular target: T2, human CD38 on cells; experiment: cell-based or functional assay; remark: listed apart in the source
[8] = molecular target: T7, human CD3 epsilon 1-26_Fc fusion protein (human); experiment: SPR, CD3 epsilon 1-26 Fc coupled to the chip, antibody injected
T7 construct: also called human CD3 1-26_Fc fusion protein
From the text: A CMS sensor chip was covalently coupled with 500 RUs of the human CD3 epsilon 1-26 Fc fusion protein.

T3 sequence (P06654 228-352): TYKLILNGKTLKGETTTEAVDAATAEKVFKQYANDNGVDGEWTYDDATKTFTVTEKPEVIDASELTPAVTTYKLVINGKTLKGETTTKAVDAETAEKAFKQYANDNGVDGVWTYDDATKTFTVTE

Kd [1]: 3.2 nM
B1: BEAT CD38-HB7bestfit/CD3 antibody (bispecific antibody, human IgG1, kappa, L234A L235A)
heavy: QVQLQESGPGLVKPSETLSLTCTVSGFSLISYGVHWVRQPPGKGLEWLGVIWRGGSTDYNAAFMSRLTISKDNSKNQVSLKLSSVTAADTAVYFCAKTLITTGYAMDYWGQGTLVTVSSASTKGPSVFPLAPSSKSTSGGTAALGCLVKDYFPEPVTVSWNSGALTSGVHTFPAVLQSSGLYSLSSVVTVPSSSLGTQTYICNVNHKPSNTKVDKKVEPKSCDKTHTCPPCPAPEAAGGPSVFLFPPKPKDTLMISRTPEVTCVVVDVSHEDPEVKFNWYVDGVEVHNAKTKPREEQYNSTYRVVSVLTVLHQDWLNGKEYKCKVSNKALPAPIEKTISKAKGQPREPAVYTLPPSRDELTKNQVKLVCLVTGFYPSDIAVEWESNGQPENNYYTTPPVLDSDGSFSLVSWLNVDKSRWQQGNVFSCSVMHEALHNHYTQKSLSLSPGK
light: DIQLTQSPSSLSASVGDRVTITCRASEDIYNRLAWYQQKPGKAPKLLISGATSLETGVPSRFSGSGSGKDYTLTISSLQPEDFATYYCQQYWSTPTFGQGTKLEIKRTVAAPSVFIFPPSDEQLKSGTASVVCLLNNFYPREAKVQWKVDNALQSGNSQESVTEQDSKDSTYSLSSTLTLSKADYEKHKVYACEVTHQGLSSPVTKSFNRGEC
chain: EVQLVESGGGLVQPGGSLRLSCAASGYTFTRYTMHWVRQAPGKGLEWIGYINPSRGYTYYADSVKGRFTLSTDKSKNTAYLQMSSLRAEDTAVYYCARYYDDHYCLDYWGQGTLVTVSSGGGGSGGGGSGGGGSGGGASDIQLTQSPSSLSASVGDRVTITCRASSSVSYVAWYQQKPGKAPKRWIYDTSKLYSGVPSRFSGSGSGTDYTLTISSLQPEDFATYYCQQWSSNPPTFGQGTKVEIKGGGGTDKTHTCPPCPAPEAAGGPSVFLFPPKPKDTLMISRTPEVTCVVVDVSHEDPEVQFKWYVDGVEVHNAKTKPREEQYNSTFRVVSVLTVLHQDWLNGKEYKCKVSNKALPAPIEKTISKTKGQPREPEVATFPPSREEMTKNQVTLVCLVTGFYPSDIAVEWESSGQPENNYNTDPPLLESDGSFALSSRLRVDKSRWQQGNIFSCSVMHEALHNRFTQKSLSLSPGK
notes: Anti-CD38 FAB arm and anti-CD3 epsilon scFv BEAT heavy chain (third chain)
T cell redirected killing of RPMI 8226 myeloma cells, RDL-FACS method, EC50 [2]: 0.0022 nM

B2: BEAT CD38-HB7bestfit/CD3(SP34) antibody (bispecific antibody)
heavy: QVQLQESGPGLVKPSETLSLTCTVSGFSLISYGVHWVRQPPGKGLEWLGVIWRGGSTDYNAAFMSRLTISKDNSKNQVSLKLSSVTAADTAVYFCAKTLITTGYAMDYWGQGTLVTVSSASTKGPSVFPLAPSSKSTSGGTAALGCLVKDYFPEPVTVSWNSGALTSGVHTFPAVLQSSGLYSLSSVVTVPSSSLGTQTYICNVNHKPSNTKVDKKVEPKSCDKTHTCPPCPAPEAAGGPSVFLFPPKPKDTLMISRTPEVTCVVVDVSHEDPEVQFKWYVDGVEVHNAKTKPREEQYNSTFRVVSVLTVLHQDWLNGKEYKCKVSNKALPAPIEKTISKTKGQPREPAVYTLPPSREEMTKNQVKLVCLVTGFYPSDIAVEWESSGQPENNYYTTPPMLDSDGSFSLVSWLNVDKSRWQQGNIFSCSVMHEALHNRFTQKSLSLSPGK
light: B1 light
chain: not shown
T cell redirected killing of Daudi cells, RDL-FACS method, EC50 [2]: 0.0018 nM

binding result [3]: no binding
binding result [4]: no binding
B3: BTB homodimer construct lacking the VH3 based scFv (other)
chain: DKTHTCPPCPAPEAAGGPSVFLFPPKPKDTLMISRTPEVTCVVVDVSHEDPEVKFNWYVDGVEVHNAKTKPREEQYNSTYRVVSVLTVLHQDWLNGKEYKCKVSNKALPAPIEKTISKAKGQPREPEVATFPPSRDELTKNQVTLVCLVTGFYPSDIAVEWESNGQPENNYKTDPPLLESQGSFALSSRLRVDKSRWQQGNVFSCSVMHEALHNHYTQKSLSLSPGK
notes: Human IgG1 Fc region with the BTB CH3 domain carrying D401Q

Kd [5]: 1 nM
B4: chimeric 9G7 antibody (antibody, human IgG1, kappa, V domains shown)
VH: QVTLKESGPGILQPSQTLSLTCSFSGLSLSTSGKGVGWIRQPSGKGLEWLAHIWWDDDKRYNPALKSRLTISKDTSSNQVFLKIASVDTADTATYYCARIELGRSYVMDYWGQGTTVTVSS
VL: DIVMTQSHKFMSTSVGDRVSISCKASQDVITSVAWFQQKPGQSPKLLIYSASYRYTGVPDRFTGSGSGTDFTFTISSVQAEDLAVYYCQQHYTIPLTFGAGTKLELKR

binding result [6]: binds
B5: VH8-VL4 (scFv)
scFv-Fc chain: EVQLVESGGGLVQPGGSLRLSCAASGYTFTRYTMHWVRQAPGKGLEWIGYINPSRGYTYYADSVKGRFTLSTDKSKNTAYLQMNSLRAEDTAVYYCARYYDDHYCLDYWGQGTLVTVSSGGGGSGGGGSGGGGSGGGASDIQLTQSPSSLSASVGDRVTITCRASSSVSYVAWYQQKPGKAPKRWIYDTSKLYSGVPSRFSGSRSGTDYTLTISSLQPEDFATYYCQQWSSNPPTFGQGTKVEIK
notes: also called humanized OKT3 VH8-VL4 scFv-Fc fusion; hOKT3 VH8-VL4 scFv Fc

binding result [6]: binds
B6: VH8-VL8 (scFv)
scFv-Fc chain: B5 scFv-Fc chain with R204G
notes: also called humanized OKT3 VH8-VL8 scFv-Fc fusion; hOKT3 VH8-VL8 scFv Fc

B7: BEAT CD38-9G7Mouse/CD3 (bispecific antibody, human IgG1, kappa, L234A L235A)
heavy: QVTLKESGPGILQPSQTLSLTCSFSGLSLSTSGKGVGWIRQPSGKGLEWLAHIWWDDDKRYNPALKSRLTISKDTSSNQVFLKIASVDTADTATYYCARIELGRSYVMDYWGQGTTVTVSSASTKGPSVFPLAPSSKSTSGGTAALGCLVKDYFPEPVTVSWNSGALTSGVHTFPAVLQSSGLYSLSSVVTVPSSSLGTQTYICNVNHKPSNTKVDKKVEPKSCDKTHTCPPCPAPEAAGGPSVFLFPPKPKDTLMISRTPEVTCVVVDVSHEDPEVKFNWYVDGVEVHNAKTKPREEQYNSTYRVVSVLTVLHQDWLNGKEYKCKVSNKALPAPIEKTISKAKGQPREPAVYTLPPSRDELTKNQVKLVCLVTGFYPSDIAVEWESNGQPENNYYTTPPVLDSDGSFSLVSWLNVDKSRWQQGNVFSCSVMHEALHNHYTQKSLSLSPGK
light: DIVMTQSHKFMSTSVGDRVSISCKASQDVITSVAWFQQKPGQSPKLLIYSASYRYTGVPDRFTGSGSGTDFTFTISSVQAEDLAVYYCQQHYTIPLTFGAGTKLELKRTVAAPSVFIFPPSDEQLKSGTASVVCLLNNFYPREAKVQWKVDNALQSGNSQESVTEQDSKDSTYSLSSTLTLSKADYEKHKVYACEVTHQGLSSPVTKSFNRGEC
chain: EVQLVESGGGLVQPGGSLRLSCAASGYTFTRYTMHWVRQAPGKGLEWIGYINPSRGYTYYADSVKGRFTLSTDKSKNTAYLQMSSLRAEDTAVYYCARYYDDHYCLDYWGQGTLVTVSSGGGGSGGGGSGGGGSDIQLTQSPSSLSASVGDRVTITCRASSSVSYVAWYQQKPGKAPKRWIYDTSKLYSGVPSRFSGSGSGTDYTLTISSLQPEDFATYYCQQWSSNPPTFGQGTKVEIKGGGGTDKTHTCPPCPAPEAAGGPSVFLFPPKPKDTLMISRTPEVTCVVVDVSHEDPEVQFKWYVDGVEVHNAKTKPREEQYNSTFRVVSVLTVLHQDWLNGKEYKCKVSNKALPAPIEKTISKTKGQPREPEVATFPPSREEMTKNQVTLVCLVTGFYPSDIAVEWESSGQPENNYNTDPPLLESDGSFALSSRLRVDKSRWQQGNIFSCSVMHEALHNRFTQKSLSLSPGK
killing assay against Daudi cells, flow cytometry readout, EC50 (pM) [7]: 3.2 pM

B8: BEAT CD38-OKT10Mouse/CD3 (bispecific antibody, human IgG1, kappa, L234A L235A)
heavy: QVELVESGGSLKLSCAASGFDFSRSWMNWVRQAPGKGLEWIGEINPDSSTINYTTSLKDKFIISRDNAKNTLYLQMTKVRSEDTALYYCARYGNWFPYWGQGTLVTVSSASTKGPSVFPLAPSSKSTSGGTAALGCLVKDYFPEPVTVSWNSGALTSGVHTFPAVLQSSGLYSLSSVVTVPSSSLGTQTYICNVNHKPSNTKVDKKVEPKSCDKTHTCPPCPAPEAAGGPSVFLFPPKPKDTLMISRTPEVTCVVVDVSHEDPEVKFNWYVDGVEVHNAKTKPREEQYNSTYRVVSVLTVLHQDWLNGKEYKCKVSNKALPAPIEKTISKAKGQPREPAVYTLPPSRDELTKNQVKLVCLVTGFYPSDIAVEWESNGQPENNYYTTPPVLDSDGSFSLVSWLNVDKSRWQQGNVFSCSVMHEALHNHYTQKSLSLSPGK
light: DILMTQSQKIMPTSVGDRVSVTCKASQNVDTNVAWYQQKPGQSPKALIYSASYRYSGVPDRFTGSGSGTDFTLTITNVQSEDLAEYFCQQYDSYPLTFGAGTKLDLKRTVAAPSVFIFPPSDEQLKSGTASVVCLLNNFYPREAKVQWKVDNALQSGNSQESVTEQDSKDSTYSLSSTLTLSKADYEKHKVYACEVTHQGLSSPVTKSFNRGE
chain: B7 chain
killing assay against Daudi cells, flow cytometry readout, EC50 (pM) [7]: 126 pM

Kd [8]: 18 nM
B9: BEAT CD38-9G7best-fit/CD3(SP34-Kappa2) antibody (bispecific antibody)
heavy: QVTLKESGPTLVKPTQTLTLTCTFSGLSLSTSGKGVGWIRQPPGKALEWLAHIWWDDDKRYNPALKSRLTITKDTSKNQVVLTMTNMDPVDTATYYCARIELGRSYVMDYWGQGTLVTVSSASTKGPSVFPLAPSSKSTSGGTAALGCLVKDYFPEPVTVSWNSGALTSGVHTFPAVLQSSGLYSLSSVVTVPSSSLGTQTYICNVNHKPSNTKVDKKVEPKSCDKTHTCPPCPAPEAAGGPSVFLFPPKPKDTLMISRTPEVTCVVVDVSHEDPEVQFKWYVDGVEVHNAKTKPREEQYNSTFRVVSVLTVLHQDWLNGKEYKCKVSNKALPAPIEKTISKTKGQPREPAVYTLPPSREEMTKNQVKLVCLVTGFYPSDIAVEWESSGQPENNYYTTPPMLDSDGSFSLVSWLNVDKSRWQQGNIFSCSVMHEALHNRFTQKSLSLSPGK
light: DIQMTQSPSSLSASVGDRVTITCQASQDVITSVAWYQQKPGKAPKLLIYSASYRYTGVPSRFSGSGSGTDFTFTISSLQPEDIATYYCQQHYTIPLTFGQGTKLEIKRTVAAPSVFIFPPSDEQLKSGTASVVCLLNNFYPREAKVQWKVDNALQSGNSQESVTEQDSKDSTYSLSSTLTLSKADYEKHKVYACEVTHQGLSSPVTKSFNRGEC
chain: EVQLVESGGGLVQPGGSLRLSCAASGFTFNTYAMNWVRQAPGKGLEWVARIRSKYNNYATYYADSVKGRFTISRDDSKNTLYLQMNSLRAEDTAVYYCVRHGNFGNSYVSYFAYWGQGTTVTVSSGGGGSGGGGSGGGGSEIVVTQSPATLSVSPGERATLSCRSSTGAVTAANYANWVQEKPGQAFRGLIGGANKRAPGVPARFSGSLSGDEATLTISSLQSEDFAVYYCALFYSNLWVFGQGTKLEIKGGGGTDKTHTCPPCPAPEAAGGPSVFLFPPKPKDTLMISRTPEVTCVVVDVSHEDPEVKFNWYVDGVEVHNAKTKPREEQYNSTYRVVSVLTVLHQDWLNGKEYKCKVSNKALPAPIEKTISKAKGQPREPEVATFPPSRDELTKNQVTLVCLVTGFYPSDIAVEWESNGQPENNYKTDPPLLESQGSFALSSRLRVDKSRWQQGNVFSCSVMHEALHNHYTQKSLSLSPG
notes: Third chain is the anti-CD3 epsilon scFv BEAT heavy chain with humanized SP34 VH5/VL32; also called 9G7xSP34(GV2)

Reference: US20190135918A1 (ICHNOS SCIENCES, published 2019)
